The target of data set [1] is LXRa:RXRa (Homo sapiens, UniProt Q13133;P19793 full;full). The experiment in a line: no ligand; PBM; 270 nM : 90 nM RXRa; PBS pH 7.4, 2% milk, 0.02% Triton X-100, 1 mM DTT, BSA, 0.4 mg/ml salmon testes DNA. The following applies: tags: His kept;His cleaved; copies: 1;1; label: surface-attached array probe. The gist of the method: (§1)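 Scanned fluorescence from custom Agilent 4×180K protein-binding microarrays was regression-normalized. Binding z-scores use random background probes as reference. Ligand-free nuclear receptor dimers were incubated on the arrays for 1 h and detected with antibodies against each partner (one per run).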
Chain of LXRa:RXRa (Q13133 whole entry, chain 1 of 2): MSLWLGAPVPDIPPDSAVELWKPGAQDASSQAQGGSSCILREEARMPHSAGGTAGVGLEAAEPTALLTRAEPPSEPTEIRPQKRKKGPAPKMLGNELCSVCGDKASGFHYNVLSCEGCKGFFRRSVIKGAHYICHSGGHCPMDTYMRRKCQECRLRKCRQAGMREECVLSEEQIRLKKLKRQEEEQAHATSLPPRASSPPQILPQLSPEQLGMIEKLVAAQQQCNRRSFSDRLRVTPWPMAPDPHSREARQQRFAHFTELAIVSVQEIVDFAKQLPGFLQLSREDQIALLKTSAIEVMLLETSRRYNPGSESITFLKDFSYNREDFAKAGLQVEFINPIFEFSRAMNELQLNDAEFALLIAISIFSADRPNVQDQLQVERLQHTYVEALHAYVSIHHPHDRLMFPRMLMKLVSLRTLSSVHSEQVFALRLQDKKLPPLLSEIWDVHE
Chain of LXRa:RXRa (P19793 whole entry, chain 2 of 2): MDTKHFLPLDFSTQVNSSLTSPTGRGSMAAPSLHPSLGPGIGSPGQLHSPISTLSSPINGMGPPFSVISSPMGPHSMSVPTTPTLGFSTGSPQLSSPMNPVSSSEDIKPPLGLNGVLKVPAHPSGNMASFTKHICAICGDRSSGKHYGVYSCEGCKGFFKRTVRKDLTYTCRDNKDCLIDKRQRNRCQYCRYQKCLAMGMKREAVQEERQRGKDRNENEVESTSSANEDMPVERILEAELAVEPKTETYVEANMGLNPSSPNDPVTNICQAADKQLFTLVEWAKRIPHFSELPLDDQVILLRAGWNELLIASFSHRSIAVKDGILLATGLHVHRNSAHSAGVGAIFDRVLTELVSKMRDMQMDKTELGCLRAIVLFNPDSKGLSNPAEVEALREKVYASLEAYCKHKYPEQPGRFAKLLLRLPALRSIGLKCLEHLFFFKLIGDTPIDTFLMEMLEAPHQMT

Data set [2] concerns the target FXR:RXRa (Homo sapiens, UniProt Q96RI1;P19793 full;full). The data set is described as above. Conditions: tags: His kept;His cleaved; copies: 1;1; label: surface-attached array probe. The gist of the method: as §1
The target of data set [3] is RARb:RXRa (Homo sapiens, UniProt P10826;P19793 full;full). The description is as above. The following applies: tags: His kept;His cleaved; copies: 1;1; label: surface-attached array probe. In short, it runs like this:
as §1

The target in data set [4] is PPARa:RXRa (Homo sapiens, UniProt Q07869;P19793 full;full). Described as above. Conditions: tags: GST kept;His cleaved; copies: 1;1; label: surface-attached array probe. In short, it runs like this: as §1
Chain of PPARa:RXRa (Q07869 whole entry, chain 1 of 2): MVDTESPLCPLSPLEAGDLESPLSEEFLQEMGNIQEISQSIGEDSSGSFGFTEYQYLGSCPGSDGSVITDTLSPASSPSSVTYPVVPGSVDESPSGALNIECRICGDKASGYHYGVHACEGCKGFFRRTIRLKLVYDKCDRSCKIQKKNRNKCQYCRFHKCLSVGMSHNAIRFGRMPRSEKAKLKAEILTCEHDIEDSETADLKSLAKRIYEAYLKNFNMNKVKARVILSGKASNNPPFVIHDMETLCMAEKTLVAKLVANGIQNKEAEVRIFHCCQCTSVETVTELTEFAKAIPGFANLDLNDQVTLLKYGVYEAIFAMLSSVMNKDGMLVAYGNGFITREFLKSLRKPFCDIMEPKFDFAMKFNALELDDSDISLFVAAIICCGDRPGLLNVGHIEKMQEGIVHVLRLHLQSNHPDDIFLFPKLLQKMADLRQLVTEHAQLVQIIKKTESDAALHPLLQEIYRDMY
Chain of PPARa:RXRa (P19793 whole entry, chain 2 of 2): as the sequence (P19793 whole entry, chain 2 of 2) above
The target of data set [5] is RARg:RXRa (Homo sapiens, UniProt P13631;P19793 full;full). Described as above. Conditions: tags: His kept;His cleaved; copies: 1;1; label: surface-attached array probe. In short, it runs like this:
as §1

Data set [6] deals with RXRa (Homo sapiens, UniProt P19793). As to the kind of experiment: no ligand; PBM; 180 nM; PBS pH 7.4, 2% milk, 0.02% Triton X-100, 1 mM DTT, BSA, 0.4 mg/ml salmon testes DNA. Conditions: tags: His cleaved; chain copies: 2; label: surface-attached array probe.
Chain of RXRa (P19793 whole entry): as the sequence (P19793 whole entry, chain 2 of 2) above

Chain of FXR:RXRa (Q96RI1 whole entry, chain 1 of 2): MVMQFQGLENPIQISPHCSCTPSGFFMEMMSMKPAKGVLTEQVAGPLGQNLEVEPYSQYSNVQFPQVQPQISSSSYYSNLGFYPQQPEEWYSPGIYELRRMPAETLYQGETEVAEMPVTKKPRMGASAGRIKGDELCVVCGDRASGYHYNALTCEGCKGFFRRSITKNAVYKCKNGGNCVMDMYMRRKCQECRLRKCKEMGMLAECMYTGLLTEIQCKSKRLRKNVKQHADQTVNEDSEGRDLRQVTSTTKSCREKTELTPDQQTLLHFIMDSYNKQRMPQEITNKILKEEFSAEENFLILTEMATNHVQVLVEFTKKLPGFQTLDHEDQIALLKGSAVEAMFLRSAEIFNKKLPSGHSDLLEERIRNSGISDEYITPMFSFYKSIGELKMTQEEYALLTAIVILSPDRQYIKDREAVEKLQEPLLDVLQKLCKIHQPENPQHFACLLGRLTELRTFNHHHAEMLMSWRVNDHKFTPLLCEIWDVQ
Chain of FXR:RXRa (P19793 whole entry, chain 2 of 2): as the sequence (P19793 whole entry, chain 2 of 2) above
Chain of RARb:RXRa (P10826 whole entry, chain 1 of 2): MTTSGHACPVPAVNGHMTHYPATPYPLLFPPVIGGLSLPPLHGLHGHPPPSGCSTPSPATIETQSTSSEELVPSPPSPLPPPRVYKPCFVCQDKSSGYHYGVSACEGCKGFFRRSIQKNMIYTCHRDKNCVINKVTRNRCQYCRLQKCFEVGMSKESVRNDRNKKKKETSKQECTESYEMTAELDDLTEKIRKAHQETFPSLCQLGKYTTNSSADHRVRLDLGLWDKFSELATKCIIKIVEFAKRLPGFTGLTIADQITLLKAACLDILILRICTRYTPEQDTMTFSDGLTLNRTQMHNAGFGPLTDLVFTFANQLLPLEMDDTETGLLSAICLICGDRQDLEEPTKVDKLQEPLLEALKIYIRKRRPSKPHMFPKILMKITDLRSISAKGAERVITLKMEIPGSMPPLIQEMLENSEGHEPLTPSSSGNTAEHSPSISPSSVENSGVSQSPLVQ
Chain of RARb:RXRa (P19793 whole entry, chain 2 of 2): as the sequence (P19793 whole entry, chain 2 of 2) above
Chain of RARg:RXRa (P13631 whole entry, chain 1 of 2): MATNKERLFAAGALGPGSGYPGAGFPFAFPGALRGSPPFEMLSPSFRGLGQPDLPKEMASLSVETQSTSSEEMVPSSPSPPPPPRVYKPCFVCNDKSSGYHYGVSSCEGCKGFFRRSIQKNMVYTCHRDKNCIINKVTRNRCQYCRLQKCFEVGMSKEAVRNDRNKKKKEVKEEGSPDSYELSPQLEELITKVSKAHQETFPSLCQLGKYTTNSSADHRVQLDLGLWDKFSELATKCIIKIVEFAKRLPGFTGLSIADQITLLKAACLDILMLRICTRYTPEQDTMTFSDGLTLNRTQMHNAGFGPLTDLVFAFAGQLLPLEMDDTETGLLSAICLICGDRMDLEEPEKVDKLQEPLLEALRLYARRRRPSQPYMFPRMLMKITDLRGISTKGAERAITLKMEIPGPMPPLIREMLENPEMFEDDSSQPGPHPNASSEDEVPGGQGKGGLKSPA
Chain of RARg:RXRa (P19793 whole entry, chain 2 of 2): as the sequence (P19793 whole entry, chain 2 of 2) above

B1: NRC3_random_hg19_104_o1 (dsDNA)
DNA 1: GCTGTAATCACGGTGTGTGAACTACTCATATCGAGTGCGATTGACAGCGTAGAATGAAGG
DNA 2: CCTTCATTCTACGCTGTCAATCGCACTCGATATGAGTAGTTCACACACCGTGATTACAGC
With B1, the binding signal in data set [1] was -0.03 PBM z-score against 500 random probes.

B2: NRC3_random_hg19_145_o1 (dsDNA)
DNA 1: GCGCCCAGTAGTTTGAGACCAGCCTGGACAACATGGGCGATTGACAGCGTAGAATGAAGG
DNA 2: CCTTCATTCTACGCTGTCAATCGCCCATGTTGTCCAGGCTGGTCTCAAACTACTGGGCGC
B2: the binding signal in data set [1] is -0.81 PBM z-score against 500 random probes.

B3: NRC3_wobSeed29_DR1_G9A_o1 (dsDNA)
DNA 1: GCGCTTACAGGTCAAAGGTTATAGCATGAATAGAATGCGATTGACAGCGTAGAATGAAGG
DNA 2: CCTTCATTCTACGCTGTCAATCGCATTCTATTCATGCTATAACCTTTGACCTGTAAGCGC
With B3, the binding signal in data set [2] was 8.14 PBM z-score against 500 random probes; in data set [1] it was 6.61 PBM z-score against 500 random probes.

B4: NRC3_random_hg19_272_o1 (dsDNA)
DNA 1: GCGTGCATTTGCTCCCAGAGGCTCTGCTCTTGCCCTGCGATTGACAGCGTAGAATGAAGG
DNA 2: CCTTCATTCTACGCTGTCAATCGCAGGGCAAGAGCAGAGCCTCTGGGAGCAAATGCACGC
With B4, the binding signal in data set [1] is -0.36 PBM z-score against 500 random probes; in data set [3] it was -0.53 PBM z-score against 500 random probes.

B5: NRC3_random_hg19_163_o1 (dsDNA)
DNA 1: GCCAGTGAGCCGAGATCATGCCACTGCACTCCAGCCGCGATTGACAGCGTAGAATGAAGG
DNA 2: CCTTCATTCTACGCTGTCAATCGCGGCTGGAGTGCAGTGGCATGATCTCGGCTCACTGGC
Consider B5, for which the binding signal in data set [1] is -0.46 PBM z-score against 500 random probes.

B6: NRC3_wobSeed21_DR0_A19C_o1 (dsDNA)
DNA 1: GCCGTCAAAGTTCAAGGTCACGTAACAGAAAGCAGCGCGATTGACAGCGTAGAATGAAGG
DNA 2: CCTTCATTCTACGCTGTCAATCGCGCTGCTTTCTGTTACGTGACCTTGAACTTTGACGGC
Regarding B6, the binding signal in data set [2] is 7.82 PBM z-score against 500 random probes; in data set [1] it was 6.86 PBM z-score against 500 random probes; in data set [4], 6.5 PBM z-score against 500 random probes; in data set [3], 5.98 PBM z-score against 500 random probes.

B7: NRC3_random_hg19_368_o1 (dsDNA)
DNA 1: GCTAAGAAACTCAGTCAACATGATATCTATGGCTAAGCGATTGACAGCGTAGAATGAAGG
DNA 2: CCTTCATTCTACGCTGTCAATCGCTTAGCCATAGATATCATGTTGACTGAGTTTCTTAGC
On to B7, for which the binding signal in data set [1] was 0.24 PBM z-score against 500 random probes.

B8: NRC3_wobSeed116_DR4_G11A_o1 (dsDNA)
DNA 1: GCAGAATGAGATTACCAAAGATCAGGGAAACGCTTGGCGATTGACAGCGTAGAATGAAGG
DNA 2: CCTTCATTCTACGCTGTCAATCGCCAAGCGTTTCCCTGATCTTTGGTAATCTCATTCTGC
Regarding B8, in data set [1], the binding signal was -0.15 PBM z-score against 500 random probes.

B9: NRC3_random_hg19_256_o1 (dsDNA)
DNA 1: GCAGGAGAAACCCACGCTGGTGTCATCACAGGTTCAGCGATTGACAGCGTAGAATGAAGG
DNA 2: CCTTCATTCTACGCTGTCAATCGCTGAACCTGTGATGACACCAGCGTGGGTTTCTCCTGC
As for B9, the binding signal in data set [1] was -0.16 PBM z-score against 500 random probes.

B10: NRC3_random_hg19_94_o1 (dsDNA)
DNA 1: GCACTATCTTGTGTCTCATCTGAGACATAGATGGATGCGATTGACAGCGTAGAATGAAGG
DNA 2: CCTTCATTCTACGCTGTCAATCGCATCCATCTATGTCTCAGATGAGACACAAGATAGTGC
Consider B10, for which the binding signal in data set [1] was -0.69 PBM z-score against 500 random probes; in data set [4] it was -0.62 PBM z-score against 500 random probes.

B11: NRC3_wobSeed42_DR1_A6T_o1 (dsDNA)
DNA 1: GCTATTCAGGGTCAAAGGCCAGAGTACGAATGTCGAGCGATTGACAGCGTAGAATGAAGG
DNA 2: CCTTCATTCTACGCTGTCAATCGCTCGACATTCGTACTCTGGCCTTTGACCCTGAATAGC
As for B11, the binding signal was 7.1 PBM z-score against 500 random probes in data set [1] and 6.67 PBM z-score against 500 random probes in data set [4].

B12: NRC3_random_hg19_430_o1 (dsDNA)
DNA 1: GCGAAGGACCTTTAGATCCTGAGACAGAACTTAGGCGCGATTGACAGCGTAGAATGAAGG
DNA 2: CCTTCATTCTACGCTGTCAATCGCGCCTAAGTTCTGTCTCAGGATCTAAAGGTCCTTCGC
For B12, in data set [1], the binding signal was -0.59 PBM z-score against 500 random probes.

B13: NRC3_random_hg19_203_o1 (dsDNA)
DNA 1: GCGATGTAACAATGCAGGGTGGTCTTGGTCTTTGGCGCGATTGACAGCGTAGAATGAAGG
DNA 2: CCTTCATTCTACGCTGTCAATCGCGCCAAAGACCAAGACCACCCTGCATTGTTACATCGC
For B13, the binding signal in data set [1] is -0.49 PBM z-score against 500 random probes.

B14: NRC3_random_hg19_442_o1 (dsDNA)
DNA 1: GCTACGGAGTGCTGATCAGTCAGGTTGGAGATGGAAGCGATTGACAGCGTAGAATGAAGG
DNA 2: CCTTCATTCTACGCTGTCAATCGCTTCCATCTCCAACCTGACTGATCAGCACTCCGTAGC
On to B14, for which, in data set [1], the binding signal was -0.9 PBM z-score against 500 random probes.

B15: NRC3_random_hg19_255_o1 (dsDNA)
DNA 1: GCGGAGGGCAGGCAGGCCTGGAGGAGCATGTGGTGTGCGATTGACAGCGTAGAATGAAGG
DNA 2: CCTTCATTCTACGCTGTCAATCGCACACCACATGCTCCTCCAGGCCTGCCTGCCCTCCGC
As for B15, the binding signal in data set [2] is -0.16 PBM z-score against 500 random probes; in data set [1], -0.19 PBM z-score against 500 random probes.

B16: NRC3_random_hg19_311_o1 (dsDNA)
DNA 1: GCTCACTTATGAAGCTTAGGTTGGCTGGATATGAAAGCGATTGACAGCGTAGAATGAAGG
DNA 2: CCTTCATTCTACGCTGTCAATCGCTTTCATATCCAGCCAACCTAAGCTTCATAAGTGAGC
As for B16, the figures for the binding signal in data set [1] and in data set [4] were 0.15 PBM z-score against 500 random probes and -0.15 PBM z-score against 500 random probes, respectively.

B17: NRC3_random_hg19_69_o1 (dsDNA)
DNA 1: GCCCAGGTGGCAGGATCCCTGCATCTGGTTTCCTCAGCGATTGACAGCGTAGAATGAAGG
DNA 2: CCTTCATTCTACGCTGTCAATCGCTGAGGAAACCAGATGCAGGGATCCTGCCACCTGGGC
For the molecule B17, the binding signal in data set [2] and in data set [1] was -0.63 PBM z-score against 500 random probes each time.

B18: NRC3_random_hg19_425_o1 (dsDNA)
DNA 1: GCCTGTTAGGTTGATTCTATGTCTTGGCTATTGTGTGCGATTGACAGCGTAGAATGAAGG
DNA 2: CCTTCATTCTACGCTGTCAATCGCACACAATAGCCAAGACATAGAATCAACCTAACAGGC
On to B18, for which the results for the binding signal in data set [2] and in data set [1] were 0.23 PBM z-score against 500 random probes and 0.31 PBM z-score against 500 random probes, respectively.

B19: NRC3_random_hg19_129_o1 (dsDNA)
DNA 1: GCGAAGTTTAGAAACTTGCCCTAAGTCACCTAACTAGCGATTGACAGCGTAGAATGAAGG
DNA 2: CCTTCATTCTACGCTGTCAATCGCTAGTTAGGTGACTTAGGGCAAGTTTCTAAACTTCGC
As for B19, the binding signal in data set [1] is -0.25 PBM z-score against 500 random probes.

B20: NRC3_random_hg19_431_o1 (dsDNA)
DNA 1: GCAGCCATATGCAAATGAGTACATCCTGTGTGATTCGCGATTGACAGCGTAGAATGAAGG
DNA 2: CCTTCATTCTACGCTGTCAATCGCGAATCACACAGGATGTACTCATTTGCATATGGCTGC
Consider B20, for which the binding signal in data set [1] was -0.4 PBM z-score against 500 random probes.

B21: NRC3_random_hg19_57_o1 (dsDNA)
DNA 1: GCTAGCTGAGACTACATGCCACCATGCCTGGCTAATGCGATTGACAGCGTAGAATGAAGG
DNA 2: CCTTCATTCTACGCTGTCAATCGCATTAGCCAGGCATGGTGGCATGTAGTCTCAGCTAGC
On to B21, for which the binding signal in data set [1] was -0.61 PBM z-score against 500 random probes.

B22: NRC3_random_hg19_497_o1 (dsDNA)
DNA 1: GCGGGTTTAGAGATGATTTGCTGTGACAGTGTTGAGGCGATTGACAGCGTAGAATGAAGG
DNA 2: CCTTCATTCTACGCTGTCAATCGCCTCAACACTGTCACAGCAAATCATCTCTAAACCCGC
Consider B22, for which the binding signal in data set [1] was 0.38 PBM z-score against 500 random probes.

B23: NRC3_random_hg19_234_o1 (dsDNA)
DNA 1: GCTAACTGGCACCTTTGGGAACTACATGTTTCCTGTGCGATTGACAGCGTAGAATGAAGG
DNA 2: CCTTCATTCTACGCTGTCAATCGCACAGGAAACATGTAGTTCCCAAAGGTGCCAGTTAGC
Regarding B23, the binding signal in data set [1] was -0.32 PBM z-score against 500 random probes.

B24: NRC3_wobSeed120_DR4_T8A_o1 (dsDNA)
DNA 1: GCCCGAGAAGGTTACGAGGGGGCATTCAGTGCGAATGCGATTGACAGCGTAGAATGAAGG
DNA 2: CCTTCATTCTACGCTGTCAATCGCATTCGCACTGAATGCCCCCTCGTAACCTTCTCGGGC
Regarding B24, the values for the binding signal in data set [5] and in data set [1] were 4.2 PBM z-score against 500 random probes and 8.13 PBM z-score against 500 random probes, respectively.

B25: NRC3_random_hg19_261_o1 (dsDNA)
DNA 1: GCCTGGCTCCAGACAGACAAGAAGACTCCTTCAGTCGCGATTGACAGCGTAGAATGAAGG
DNA 2: CCTTCATTCTACGCTGTCAATCGCGACTGAAGGAGTCTTCTTGTCTGTCTGGAGCCAGGC
As to B25, the figures for the binding signal in data set [6] and in data set [1] were -0.45 PBM z-score against 500 random probes and -1.08 PBM z-score against 500 random probes, respectively.
